Results reported in article PMC5021521, “Coordinated recruitment of Spir actin nucleators and myosin V motors to Rab11 vesicle membranes” (eLife, 2016).
Values belong to the molecule of their own block, whether it stands above or below them. Ends that are not written are not given here. * marks the point of attachment. 5FAM = O=C1OC2(c3ccc(O)cc3Oc3cc(O)ccc32)c2ccc(C(=O)*)cc21; Ahx = NCCCCCC(=O)O

Assays:
[1] = target: T1, MyoVc-GTD (human, aa 1350-1742) (human, UniProt Q9NQX4 1350-1742); assay: MST
T1 chain: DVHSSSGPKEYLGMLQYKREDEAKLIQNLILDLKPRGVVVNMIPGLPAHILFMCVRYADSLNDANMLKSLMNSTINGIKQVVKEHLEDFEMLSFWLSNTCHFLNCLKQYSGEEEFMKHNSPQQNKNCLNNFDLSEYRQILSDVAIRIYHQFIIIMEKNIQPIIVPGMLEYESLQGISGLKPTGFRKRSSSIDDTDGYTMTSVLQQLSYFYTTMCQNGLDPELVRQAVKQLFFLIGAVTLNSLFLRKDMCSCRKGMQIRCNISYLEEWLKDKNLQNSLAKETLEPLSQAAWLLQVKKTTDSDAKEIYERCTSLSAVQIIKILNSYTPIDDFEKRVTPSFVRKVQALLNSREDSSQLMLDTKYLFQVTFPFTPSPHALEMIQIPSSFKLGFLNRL

[2] = target: T2, MyoVc-GTD (human, aa 1350-1742) (human, UniProt Q9NQX4 1350-1742); assay: MST; 500 nM fluorescein-Spir-2 peptide, MyoVc-GTD 97 uM to 2.96 nM; 21.5°C; 50 mM Tris pH 8.0, 250 mM NaCl, 2 mM MgCl2, 2 mM TCEP, 5% glycerol; details: both partners purified
T2 construct: myosin Vc globular tail domain, human, residues 1350-1742; also called hs-MyoVc-GTD; source: E. coli BL21(DE3) or BL21-CodonPlus-RILP, purified (HisTrap, rTEV, Superdex 200); not shown: His6, N-terminal, cleaved
T2 sequence (looked up): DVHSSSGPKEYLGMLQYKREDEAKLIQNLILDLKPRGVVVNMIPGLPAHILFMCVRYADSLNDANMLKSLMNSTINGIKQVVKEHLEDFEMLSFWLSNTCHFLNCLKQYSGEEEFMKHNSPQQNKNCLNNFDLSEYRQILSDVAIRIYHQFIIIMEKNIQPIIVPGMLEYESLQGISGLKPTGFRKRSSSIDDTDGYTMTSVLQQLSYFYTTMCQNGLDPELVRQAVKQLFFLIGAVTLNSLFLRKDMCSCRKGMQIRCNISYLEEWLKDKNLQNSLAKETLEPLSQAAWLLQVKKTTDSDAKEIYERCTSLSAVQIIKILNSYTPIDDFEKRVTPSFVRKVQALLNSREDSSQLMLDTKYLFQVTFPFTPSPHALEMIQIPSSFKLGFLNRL

[3] = target: T3, MyoVb-GTD (human, aa 1456-1848) (human, UniProt Q9ULV0 1456-1848); assay: fluorescence polarisation; fluorescence anisotropy; 1 uM fluorescein-Spir-2-401-427 titrated with MyoVa-GTD or MyoVb-GTD (50 nM-5 uM); 25°C; 100 mM Tris-HCl pH 8.0, 150 mM NaCl, 2 mM MgCl2, 2 mM TCEP, 5% glycerol; details: both partners purified
T3 construct: myosin Vb globular tail domain, human, residues 1456-1848; Produced as in Pylypenko et al., 2013; also called hs-MyoVb-GTD; source: E. coli BL21(DE3) or BL21-CodonPlus-RILP, purified (HisTrap, rTEV, Superdex G200); not shown: His6, N-terminal, cleaved
T3 sequence (looked up): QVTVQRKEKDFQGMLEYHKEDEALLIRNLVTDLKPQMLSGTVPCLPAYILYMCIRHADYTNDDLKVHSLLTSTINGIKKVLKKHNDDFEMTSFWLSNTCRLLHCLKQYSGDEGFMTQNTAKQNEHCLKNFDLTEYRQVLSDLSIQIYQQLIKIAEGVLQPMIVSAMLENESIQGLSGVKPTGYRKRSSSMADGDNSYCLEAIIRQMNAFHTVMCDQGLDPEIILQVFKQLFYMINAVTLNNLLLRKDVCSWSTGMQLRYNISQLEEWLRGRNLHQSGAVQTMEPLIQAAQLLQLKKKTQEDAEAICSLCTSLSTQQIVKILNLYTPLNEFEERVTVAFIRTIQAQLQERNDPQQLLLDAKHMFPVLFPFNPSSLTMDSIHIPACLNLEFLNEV

GST-MyoVa-GTD (mouse) = assay: pull-down + other fluorescence titration; quantitative GST-pulldown: increasing GST-MyoVa/b-GTD on beads, 100 nM His6-mCherry-Spir-2-linker, 1x PBS with 50 mM NaCl; mCherry fluorescence left in the supernatant at 20°C; single-site fit
GST-MyoVb-GTD [4] = target: T4, GST-MyoVb-GTD (human, UniProt Q9ULV0 1467-1848); assay: as above; details: both partners purified
T4 construct: myosin Vb globular tail domain, human, aa 1467-1848; also called GST-hs-MyoVb-GTD; pGex-4T1-NTEV-hs-MyoVb-GTD; source: E. coli Rosetta or Rosetta (DE3) pLysS, purified (GSH-Sepharose 4B, Superdex 200)
T4 sequence (looked up): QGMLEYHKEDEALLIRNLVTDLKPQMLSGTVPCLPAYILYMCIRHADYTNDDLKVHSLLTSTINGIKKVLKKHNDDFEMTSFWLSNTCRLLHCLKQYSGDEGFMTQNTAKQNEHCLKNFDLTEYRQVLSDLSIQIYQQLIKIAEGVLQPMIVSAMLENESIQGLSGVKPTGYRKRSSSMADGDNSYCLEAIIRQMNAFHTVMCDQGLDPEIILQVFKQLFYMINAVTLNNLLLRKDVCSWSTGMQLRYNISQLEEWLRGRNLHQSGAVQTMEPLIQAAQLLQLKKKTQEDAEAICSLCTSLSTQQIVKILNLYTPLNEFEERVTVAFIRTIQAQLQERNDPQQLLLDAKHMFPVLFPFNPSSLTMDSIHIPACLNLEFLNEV

GST-MyoVa-GTD [5] = assay: Quantitative GST-pulldown, fluorescence spectroscopy, Spir-2-linker; assay type: binding, Mus musculus; details: 100 nM His6-mCherry-Spir-2-linker (aa 361–519); SPECS buffer (1x PBS, 50 mM NaCl), 20°C; depletion of mCherry fluorescence (ex 548 nm, em 610 nm); ± SEM, n = 4 experimental repeats; read-out: dissociation constant (Kd)
Description: (§1) For GST-pulldown assays, 50 µg of GST-fusion protein was coupled to GSH-Sepharose 4B beads (1:1 suspension) for 1 hr at 4°C on a rotating wheel. Beads were washed twice with pulldown buffer and subsequently incubated with 20 µg His6-mCherry-fusion peptides for 2 hr, 4°C on a rotating wheel. In order to identify the tripartite Spir-2:MyoVa:Rab11a complex, 65 µg GST-Spir-2-GTBM-SB-FYVE was coupled to beads. Subsequently, beads were incubated with 40 µg MyoVa-GTD and 35 µg Rab11a-Q70L simultaneously for 2 hr. Beads were washed four times with pulldown buffer and bound proteins were eluted by 1x Laemmli buffer and denatured at 95°C for 10 min. Pulled proteins were analyzed by immunoblotting.
GST-pulldown assays were performed as described above with increasing concentrations of GST-MyoVa/b-GTD fusion proteins and 100 nM His6-mCherry-Spir-2-linker peptide in SPECS buffer (1x PBS, 50 mM NaCl). Beads were pelleted and the supernatant was centrifuged for 10 min at 20,000 x g to remove potential debris that could disturb the fluorescence measurement. […] The concentration-dependent binding of MyoVa/b-GTD to the Spir-2-linker was determined by fluorospectrometric analysis using FluoroMax-4 Spectrofluorometer (Horiba Jobin Yvon, Bensheim, Germany). The mCherry red fluorescent protein was excited at 548 nm and the emission at 610 nm was recorded (emission maximum). […]

[6] = system: Spir-2:MyoVa:Rab11 tripartite complex; assay: Analytical gel filtration; assay type: binding, Homo sapiens; details: Superdex 200 10/30; 50 mM Tris pH 8.0, 150 mM NaCl, 2 mM MgCl2, 2 mM TCEP
Description: (§2) Complex formations were analyzed by analytical gel-filtration using Superdex 200 10/30 Increase column (GE Healthcare Life Sciences) and UV light absorbance at 280 nm and 260 nm and Visible light absorbance at 587 nm at flow rate of 0.75 ml/min in 50 mM Tris pH 8.0, 150 mM NaCl, 2 mM MgCl2, 2 mM TCEP buffer. Fractions of 500 µl were collected and analyzed by SDS-PAGE.
(§3) A 100 µl sample of His6-Rab11a-1-173-Q70L at 6 mg/ml, or of MyoVa-GTD at 5 mg/ml or of His6-mCherry-Spir-2-linker at 6 mg/ml were centrifuged at 10,000 x g for 10 min and injected into the column to monitor reference elution profiles of the individual proteins. The proteins were mixed pairwise to the same final concentrations and incubated 30 min at 4°C in a total volume of 100 µl. The two-component complexes (His6-mCherry-Spir-2-linker:MyoVa-GTD and MyoVa-GTD:His6-Rab11a-1-173-Q70L) were confirmed by the elution peak shifts and SDS-PAGE analysis. […] The tripartite His6-mCherry-Spir-2-linker:MyoVa-GTD:His6-Rab11a-1-173-Q70L complex was analyzed at the same concentration of the individual components and confirmed by SDS-PAGE.

GST-MyoVa-GTD [7] = assay: GST-pulldown with purified proteins; assay type: binding, Mus musculus; details: purified His6-mCherry-Spir-2-linker mutant L408A,L409A; N = 4
Description: as §1

GST-MyoVb-GTD [8] = assay: GST-pulldown with purified proteins; assay type: binding, Homo sapiens; details: purified His6-mCherry-Spir-2-linker mutant L408A,L409A; N = 4
Description: as §1

[9] = Analytical gel filtration, individual protein; assay type: physicochemical; details: Figure 5—figure supplement 2
Description: as §2, §3

Kd [1]: 2880 nM
binding result [2]: binds
binding result [3]: binds
B1: Fluorescein-Spir-2-GTBM peptide (peptide)
peptide: {5FAM-Ahx}-QRPRPRVLLKAPTLAEMEEMNTSEEEE
notes: also called Fluorescein-Spir2 peptide; fluorescein labeled Spir-2-401-427 peptide; source: synthetic peptide, bought: GenScript

Kd (GST-MyoVa-GTD (mouse)): 728 nM
Kd (GST-MyoVb-GTD [4]): ~377 nM
B2: His6-mCherry-Spir-2-linker (domain or fragment, human, UniProt Q8WWL2 361-519, looked up)
chain: GEGWAARGFGSLPCILNACSGDAKSTSCINLSVTDAGGSAQRPRPRVLLKAPTLAEMEEMNTSEEEESPCGEVTLKRDRSFSEHDLAQLRSEVASGLQSATHPPGGTEPPRPRAGSAHVWRPGSRDQGTCPASVSDPSHPLLSNRGSSGDRPEASMTPD
notes: Spir-2 central linker region, human, aa 361-519; also called His-mCherry-Spir2-linker; His6-mCherry-hs-Spir2-linker; source: E. coli (Rosetta or Rosetta (DE3) pLysS; BL21(DE3)), purified (Ni-NTA, Superdex 200); not shown: His6, N-terminal, kept; mCherry, N-terminal, kept

Kd (GST-MyoVa-GTD [5]): 728 ± 113 nM
B3: mCherry-Spir2-linker: His6-mCherry-hs-Spir2-linker aa 361 - 519 (protein)
chain: GEGWAARGFGSLPCILNACSGDAKSTSCINLSVTDAGGSAQRPRPRVLLKAPTLAEMEEMNTSEEEESPCGEVTLKRDRSFSEHDLAQLRSEVASGLQSATHPPGGTEPPRPRAGSAHVWRPGSRDQGTCPASVSDPSHPLLSNRGSSGDRPEASMTPD
modifications: left off: His6, N-terminal, kept | mCherry, N-terminal, kept
co-elution in gel filtration in words [6]: co-elution of all three proteins

binding to GST-MyoVa-GTD in words (GST-MyoVa-GTD [7]): largely impairs binding
binding to GST-MyoVb-GTD in words (GST-MyoVb-GTD [8]): largely impairs binding
B4: Spir-2-linker-LALA: His6-mCherry-hs-Spir2-linker-L408A,L409A (protein)
chain: GEGWAARGFGSLPCILNACSGDAKSTSCINLSVTDAGGSAQRPRPRVAAKAPTLAEMEEMNTSEEEESPCGEVTLKRDRSFSEHDLAQLRSEVASGLQSATHPPGGTEPPRPRAGSAHVWRPGSRDQGTCPASVSDPSHPLLSNRGSSGDRPEASMTPD
modifications: left off: His6, N-terminal, kept | mCherry, N-terminal, kept
notes: His6-mCherry-hs-Spir2-linker-L408A,L409A

B5: MyoVa-GTD: purified hs-MyoVa-GTD aa 1461 - 1853; in Figure 3E the label stands for AcGFP-mm-MyoVa-GTD donor alone (protein)
chain: IRPVNIPRKEKDFQGMLEYKKEDEQKLVKNLILELKPRGVAVNLIPGLPAYILFMCVRHADYLNDDQKVRSLLTSTINSIKKVLKKRGDDFETVSFWLSNTCRFLHCLKQYSGEEGFMKHNTSRQNEHCLTNFDLAEYRQVLSDLAIQIYQQLVRVLENILQPMIVSGMLEHETIQGVSGVKPTGLRKRTSSIADEGTYTLDSILRQLNSFHSVMCQHGMDPELIKQVVKQMFYIIGAITLNNLLLRKDMCSWSKGMQIRYNVSQLEEWLRDKNLMNSGAKETLEPLIQAAQLLQVKKKTDDDAEAICSMCNALTTAQIVKVLNLYTPVNEFEERVSVSFIRTIQMRLRDRKDSPQLLMDAKHIFPVTFPFNPSSLALETIQIPASLGLGFIS
modifications: left off: His6, N-terminal, cleaved
co-elution in gel filtration in words [6]: co-elution of all three proteins
oligomeric state in solution [9]: monomeric in solution
